Molecular target: aggrecan
Experiment: solid-phase binding assay: aggrecan-coated wells, 10 ng/well IGFBP-2, detected with 125I-IGF-I

- reduction in binding (against native IGFBP-2): 75%
Substance: HBD-IGFBP-2 mutant (179PKKLRP184 mutated to 179PNNLAP184) (from UniProt P18065 37-325)
